Data taken from patent US20230203142A1, “TREATMENT OF METABOLIC DISORDERS THROUGH THE TARGETING OF A NOVEL CIRCULATING HORMONE COMPLEX” (The President and Fellows of Harvard College, priority 2020, published 2023).
Each block holds one molecule with its values, some of them ahead of it.

What was measured:
Human NDPK-A = molecular target: T1, Human NDPK-A (Homo sapiens, UniProt P15531); assay: Microscale Thermophoresis (MST) one-to-one protein interaction with NDPK; conditions: recombinant proteins, binding to NDPK
T1 construct: purchased Acro Biosystems NM1-H5147
Experimental: Additionally, one-to-one recombinant protein interaction assays were performed using Microscale Thermophoresis (MST) to independently validate the interactions between each of the proposed complex components. MST is a technology for the interaction analysis of biomolecules. MST is the directed movement of particles in a microscopic temperature gradient. Any change of the hydration shell of biomolecules due to changes in their structure/conformation results in a relative change of the movement along the temperature gradient and is used to determine binding affinities. MST allows measurement of interactions directly in solution without the need of immobilization to a surface (immobilization-free technology).
To perform this technique, proteins were desalted and buffer exchanged into PBS prior to labeling. […] Experiments were conducted independently with each of NDPK and ADK labeled with each kit (i.e., experiments were performed with lysine-labeled, cysteine-labeled, and His-labeled versions of each protein to confirm the site of labeling was not influencing detected interaction). […] Concentration of labeled proteins ranged from 12 nM to 20 nM, as determined by MST quantification to obtain a fluorescence intensity of ˜350 from each capillary tube. […]

recombinant NDPK = molecular target: T2, recombinant NDPK (Homo sapiens, UniProt P15531); assay: Recombinant kinase activity assay, NDPK (ADP-Glo/Kinase-Glo); type: biochemical; conditions: recombinant NDPK plus the added component
T2 construct: purchased Acro Biosystems NM1-H5147
Experimental: (§1) An on-bead kinase assay was developed to measure the activity of endogenous NDPK and ADK pulled down from serum using a-Ab or c-Ab conjugated beads. Both NDPK and ADK are bi-directional kinases that will produce ATP or ADP depending on the substrates provided (FIGS. 4B-C). Kinase activity assays were performed in 384-well plates in reaction buffer (PBS with 0.1% BSA, 0.01% F-127, 5 mM MgCl2). Experiments with recombinant proteins were performed at final concentrations of 40 μg/ml for ADK and FABP4, and 20 ug/ml for NDPK, and a reaction volume of 10 μl. Antibodies were used at a final concentration of 80 ug/ml. Substrates were added in equimolar ratios depending on the kinase being assayed and the direction of the reaction in serial dose responses, with the highest concentration of 5 μM. Proteins and substrates were incubated for 1 hr at room temperature, and ADP and ATP production were monitored using ADP-Glo and Kinase-Glo kits, respectively, according the manufacturer instructions (V6930 and V6711 Promega, USA). Luminescence was quantified using a SpectraMax Paradigm plate reader 30 min after the addition of substrate. Consistent with the MS results, ADK activity, as measured by generation of ATP, was specifically observed in samples pulled down with a-Ab but not c-Ab (FIG. 5A). […] To test this possibility, the ATP and ADP generating activity of recombinant ADK was assessed in the presence of the proposed complex components.

recombinant ADK = molecular target: T3, recombinant ADK (Homo sapiens, UniProt P55263); assay: Recombinant kinase activity assay, ADK (Kinase-Glo); type: biochemical; conditions: recombinant ADK plus the added component
T3 construct: purchased Novus Biologicals or R&D Systems NBP1-44382 or 8024-AK-025
Experimental: as §1

primary mouse islets = assay: Glucose-stimulated insulin secretion (GSIS), mouse islets; type: cell-based
Experimental: Primary islet isolation from mice was performed as previously described (Batchuluun et al., 2018; Prentice et al., 2014) and GSIS was assessed following acute treatment with NDPK-ADK in the presence or absence of FABP4. Insulin secretion assays were performed as previously described (Prentice et al., 2014). For primary islets, 20 islets were hand-picked into 1.5 ml tubes, washed twice with Krebs Ringer Buffer (KRB) without glucose, and pre-incubated in 500 μl low glucose (LG; 2.8 mM) KRB for 1 hour at 37° C. KRB was then removed and 250 μl of fresh LG KRB added. Islets were incubated for 20 minutes at 37° C. Supernatant was collected and 250 μl high glucose (HG; 16.7 mM) KRB added. Islets were incubated for 20 minutes at 37° C. In conditions where KCl was used, HG KRB was collected, and 250 μl KC1 (16.7 mM glucose, 30 mM KCl) KRB added. Islets were incubated for 20 minutes at 37° C., and supernatant collected. Following the stimulation protocol, cells were lysed in 100 μl acid ethanol (70% ethanol, 1% HCl in water) and stored at 4° C. overnight. Samples were evaporated using a SpeedVac until dried, and resuspended in 60 μl ultrapure water. DNA was quantified by Nanodrop (ThermoFisher, USA). Insulin from supernatant was quantified using insulin HTRF (Insulin Ultrasensitive Assay kit 62IN2PEH; Cisbio, USA).

WT mice = assay: Acute FABP4 administration; type: in vivo, mouse; conditions: 20 minutes post-injection, vs vehicle-injected controls
Experimental: (§2) Given the essential role for appropriate beta cell function and insulin secretion in the pathogenesis of diabetes, the pancreata of FABP4 deficient (FABP4^−/−) mice were examined for beta cell mass and insulin content. Animal care and experimental procedures were performed with approval from animal care committees of Harvard University. All mice were housed on a 12-hour light/dark cycle with ad libitum access to chow (PicoLab 5058 LabDiet) and water. FABP4−/− and WT mice were littermates obtained from heterozygous breeding. High fat diet (HFD) fed mice were provided ad libitum access to HFD (60% kcal from fat; Research Diets Inc., D12492i) for 14 weeks beginning at 4 weeks of age. Pancreata and isolated islets were obtained from 7-8-week-old male mice. Blood was collected every other week for 6 hour fasting plasma insulin and FABP4 levels. For acute FABP4 treatment, 10 μg of human recombinant FABP4 (produced in-house) or sterile PBS was injected intraperitoneally. Blood was collected from the tail vein at 0, 10, 20, 30, 60, 120, 240- and 360-minutes post injection for measurement of blood glucose, plasma insulin, and FABP4 levels.

WT NOD mice = assay: Acute FABP4 administration; type: in vivo, mouse; conditions: 20 minutes post-injection, vs vehicle-injected controls
Experimental: as §2

T2 sequence (P15531 whole entry): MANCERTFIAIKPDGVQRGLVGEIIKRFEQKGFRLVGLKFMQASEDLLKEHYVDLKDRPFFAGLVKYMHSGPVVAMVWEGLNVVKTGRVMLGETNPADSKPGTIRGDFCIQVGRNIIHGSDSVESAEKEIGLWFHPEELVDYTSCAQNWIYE
T1 sequence (P15531 whole entry): as above

Kd (Human NDPK-A): ~1.8 nM
activity of NDPK to generate ADP (recombinant NDPK): significantly reduced
capacity of NDPK to produce ATP (recombinant NDPK): no effect
B1: ADK: recombinant human adenosine kinase (Novus Biologicals or R&D Systems) (protein, listed as Homo sapiens)
chain: MAAAEEEPKPKKLKVEAPQALRENILFGMGNPLLDISAVVDKDFLDKYSLKPNDQILAEDKHKELFDELVKKFKVEYHAGGSTQNSIKVAQWMIQQPHKAATFFGCIGIDKFGEILKRKAAEAHVDAHYYEQNEQPTGTCAACITGDNRSLIANLAAANCYKKEKHLDLEKNWMLVEKARVCYIAGFFLTVSPESVLKVAHHASENNRIFTLNLSAPFISQFYKESLMKVMPYVDILFGNETEAATFAREQGFETKDIKEIAKKTQALPKMNSKRQRIVIFTQGRDDTIMATESEVTAFAVLDQDQKEIIDTNGAGDAFVGGFLSQLVSDKPLTECIRAGHYAASIIIRRTGCTFPEKPDFH

ADK activity to generate ATP (recombinant ADK): significantly increased
activity of NDPK to generate ADP (recombinant NDPK): not further influenced
capacity of NDPK to produce ATP (recombinant NDPK): no effect
B2: FABP4: human recombinant FABP4 (produced in-house) (protein)
chain: CDAFVGTWKLVSSENFDDYMKEVGVGFATRKVAGMAKPNMIISVNGDVITIKSESTFKNTEISFILGQEFDEVTADDRKVKSTITLDGGVLVHVQKWDGKSTTIKRKREDDKLVVECVMKGVTSTRVYERA
GSIS (primary mouse islets; primary / WT mouse islets): no effect
NDPK-ADK-enhanced GSIS response (primary mouse islets; primary mouse islets, added to NDPK-ADK): significantly blunted
blood glucose levels (WT mice): significantly increased
plasma insulin (WT NOD mice): significant reduction
